Measured values published in US20200325232A1 (INNATE PHARMA, published 2020).

B1: CD19-F18-NKp46-1 (bispecific antibody)
chain 1: not shown
chain 2: not shown
chain 3: DIQMTQTTSSLSASLGDRVTISCRASQDISNYLNWYQQKPDGTVKLLIYYTSRLHSGVPSRFSGSGSGTDYSLTINNLEQEDIATYFCQQGNTRPWTFGGGTKLEIKASTKGPSVFPLAPSSKSTSGGTAALGCLVKDYFPEPVTVSWNSGALTSGVHTFPAVLQSSGLYSLSSVVTVPSSSLGTQTYICNVNHKPSNTKVDKRVEPKSCDKTH
B2: CD19-F19-NKp46-1 (bispecific antibody, human IgG1, kappa)
chain 1: not shown
chain 2: not shown
chain 3: DIQMTQTTSSLSASLGDRVTISCRASQDISNYLNWYQQKPDGTVKLLIYYTSRLHSGVPSRFSGSGSGTDYSLTINNLEQEDIATYFCQQGNTRPWTFGGGTKLEIKASTKGPSVFPLAPSSKSTSGGTAALGCLVKDYFPEPVTVSWNSGALTSGVHTFPAVLQSSGLYSLSSVVTVPSSSLGTQTYICNVNHKPSNTKVDKRVEPKSCDKTH
B3: CD19-F20-NKp46-1 (bispecific antibody, human IgG1, kappa)
chain 1: not shown
chain 2: not shown
chain 3: DIQMTQTTSSLSASLGDRVTISCRASQDISNYLNWYQQKPDGTVKLLIYYTSRLHSGVPSRFSGSGSGTDYSLTINNLEQEDIATYFCQQGNTRPWTFGGGTKLEIKASTKGPSVFPLAPSSKSTSGGTAALGCLVKDYFPEPVTVSWNSGALTSGVHTFPAVLQSSGLYSLSSVVTVPSSSLGTQTYICNVNHKPSNTKVDKRVEPKSCDKTH
B4: NKp46-3 (antibody, V domains shown)
VH: EVQLQQSGPELVKPGASVKISCKTSGYTFTEYTMHWVKQSHGKSLEWIGGISPNIGGTSYNQKFKGKATLTVDKSSSTAYMELRSLTSEDSAVYYCARRGGSFDYWGQGTTLTVSS
VL: DIVMTQSPATLSVTPGDRVSLSCRASQSISDYLHWYQQKSHESPRLLIKYASQSISGIPSRFSGSGSGSDFTLSINSVEPEDVGVYYCQNGHSFPLTFGAGTKLELK
notes: Mouse hybridoma antibody (Balb/c immunisation); also called anti-NKp46 (NKp46-3)

Experiments:
[1] = target: T1, CD19 (UniProt P15391 20-556, limits assumed); assay: cell-based or functional assay
T1 sequence (looked up): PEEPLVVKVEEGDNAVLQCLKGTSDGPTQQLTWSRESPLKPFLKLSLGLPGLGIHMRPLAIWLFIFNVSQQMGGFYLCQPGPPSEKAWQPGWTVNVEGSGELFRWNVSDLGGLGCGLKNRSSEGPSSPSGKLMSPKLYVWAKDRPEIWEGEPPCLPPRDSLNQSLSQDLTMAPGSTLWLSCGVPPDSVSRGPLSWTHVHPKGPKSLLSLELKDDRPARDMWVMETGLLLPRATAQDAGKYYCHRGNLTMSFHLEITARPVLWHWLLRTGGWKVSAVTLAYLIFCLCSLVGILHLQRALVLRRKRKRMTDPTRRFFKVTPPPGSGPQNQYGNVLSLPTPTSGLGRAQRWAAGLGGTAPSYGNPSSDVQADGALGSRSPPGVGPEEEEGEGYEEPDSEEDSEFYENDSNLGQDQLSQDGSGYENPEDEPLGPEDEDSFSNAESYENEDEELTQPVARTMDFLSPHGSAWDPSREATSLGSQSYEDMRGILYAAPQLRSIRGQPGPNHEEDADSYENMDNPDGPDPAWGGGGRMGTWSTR

[2] = target: T2, human NKp46 (human, UniProt O76036 22-304); assay: flow cytometry screen of Example 1 on a cell line expressing human NKp46
T2 construct: The screen used a cell line expressing 'the human NKp46 construct' at the cell surface; In the lysis assays NKp46 is on fresh human NK cells; also called huNKp46; NKp46 receptor
Protocol: Primary screen: Supematant (SN) of growing clones were tested in a primary screen by flow cytometry using a cell line expressing the human NKp46 construct at the cell surface.

T2 sequence (O76036 22-304 Q82K limits assumed): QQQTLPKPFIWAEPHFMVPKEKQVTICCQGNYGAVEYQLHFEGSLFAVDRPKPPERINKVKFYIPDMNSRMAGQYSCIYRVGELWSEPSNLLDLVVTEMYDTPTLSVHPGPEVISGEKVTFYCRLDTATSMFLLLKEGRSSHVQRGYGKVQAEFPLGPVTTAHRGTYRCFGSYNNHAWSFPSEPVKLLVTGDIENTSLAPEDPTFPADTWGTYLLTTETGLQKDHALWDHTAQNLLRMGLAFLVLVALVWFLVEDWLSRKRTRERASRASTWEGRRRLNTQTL

| Binder | EC50 of Daudi target cell lysis by NK cells (4-h 51Cr-release assay) [1] [picomolar] | binding result [2] |
| --- | --- | --- |
| B1 | ~1 | – |
| B2 | ~1 | – |
| B3 | ~1 | – |
| B4 | – | binds |
